Patent US20240043551A1 (ADLAI NORTYE BIOPHARMA, published 2024)
Positions count from the first letter of the chain named.

T1: His tagged human TNFR2 ECD (Acro Biosystem, TN2-H5227) (human, UniProt P20333 23-257)
T1 construct: extracellular domain; Bought protein; also called TNFR2-His; hTNFR2-His; not shown: His tag
T1 sequence (looked up): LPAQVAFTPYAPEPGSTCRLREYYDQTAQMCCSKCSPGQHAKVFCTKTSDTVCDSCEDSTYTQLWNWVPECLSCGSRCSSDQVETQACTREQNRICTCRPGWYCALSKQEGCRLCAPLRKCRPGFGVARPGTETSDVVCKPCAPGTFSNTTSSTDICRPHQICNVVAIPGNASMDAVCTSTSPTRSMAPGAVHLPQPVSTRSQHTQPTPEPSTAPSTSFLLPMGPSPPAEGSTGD

T2: rat TNFR2 (R&D systems, 8348-R2-050) (rat, UniProt Q80WY6 23-258)
T2 construct: Bought protein
T2 sequence (looked up): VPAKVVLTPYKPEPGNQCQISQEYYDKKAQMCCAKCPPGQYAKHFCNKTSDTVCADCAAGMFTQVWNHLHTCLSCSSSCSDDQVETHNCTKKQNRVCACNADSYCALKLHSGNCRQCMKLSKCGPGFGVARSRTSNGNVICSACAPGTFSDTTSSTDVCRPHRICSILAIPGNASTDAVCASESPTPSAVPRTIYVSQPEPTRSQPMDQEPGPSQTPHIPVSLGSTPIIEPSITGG

T3: Full length human TNFR2 on Jurkat E6-1 cells (Clone NO.3) (human, UniProt P20333 23-461)
T3 construct: whole, on cells; also called human TNFR2+ Jurkat cells; hTNFR2 Jurkat
T3 sequence (looked up): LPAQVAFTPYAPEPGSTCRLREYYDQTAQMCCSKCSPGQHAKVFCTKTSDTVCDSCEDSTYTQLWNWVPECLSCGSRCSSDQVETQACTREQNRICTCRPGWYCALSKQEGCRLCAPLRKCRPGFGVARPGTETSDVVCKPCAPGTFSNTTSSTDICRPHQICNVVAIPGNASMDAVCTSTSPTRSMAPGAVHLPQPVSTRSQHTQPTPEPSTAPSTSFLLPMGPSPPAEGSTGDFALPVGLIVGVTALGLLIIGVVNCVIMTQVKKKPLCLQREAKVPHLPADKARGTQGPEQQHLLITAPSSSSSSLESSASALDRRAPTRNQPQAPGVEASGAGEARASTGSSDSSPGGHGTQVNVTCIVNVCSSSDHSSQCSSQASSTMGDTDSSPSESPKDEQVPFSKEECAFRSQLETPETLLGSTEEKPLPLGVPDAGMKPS

T4: Human TNFR1 (Acro Biosystem, TN1-H5222) (human, UniProt P19438 30-211)
T4 construct: Bought protein; also called TNF receptor type 1; CD120a
T4 sequence (looked up): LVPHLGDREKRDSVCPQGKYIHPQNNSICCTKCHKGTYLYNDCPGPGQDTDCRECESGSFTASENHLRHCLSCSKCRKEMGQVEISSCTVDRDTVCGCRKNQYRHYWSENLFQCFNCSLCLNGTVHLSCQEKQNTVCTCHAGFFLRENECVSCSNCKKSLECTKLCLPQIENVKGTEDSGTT

T5: mouse TNFR2 (R&D systems, 426-R2-050/CF) (mouse, UniProt P25119 23-258)
T5 construct: Bought protein
T5 sequence (looked up): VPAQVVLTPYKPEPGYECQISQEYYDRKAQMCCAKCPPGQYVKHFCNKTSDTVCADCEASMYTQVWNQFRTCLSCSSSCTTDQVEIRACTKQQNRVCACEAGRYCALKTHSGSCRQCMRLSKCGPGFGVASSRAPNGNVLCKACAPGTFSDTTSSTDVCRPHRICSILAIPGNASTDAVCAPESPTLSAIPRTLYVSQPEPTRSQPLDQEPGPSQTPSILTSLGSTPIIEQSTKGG

B1: TN1-36 scFv on phage (scFv, V domains shown)
VH: QQSVKESEGGLFKPTDTLTLTCTVSGFSLSSSAVSWVRQAPGNGLEWIGAIGSGGTSYYSNWAKSRSTITRDTNLNTVTLKMTSLTAADTATYFCARDPNSSDYPYGAYGMGLWGPGTLVTVSS
VL: ELDLTQTPASVEVAAGGTVTINCQVSQSISSYLSWYQQKPGQPPKLLIYYASTLASGVPSRFSGSGSGTEFTLTISGVQCDDAATYYCQQGYITSNVGNAFGGGTEVVVK
notes: also called TN1-36_VH/TN1-36_VL
B2: TN36-3 (antibody, human IgG1, V domains shown)
VH: EVQLVESGGGLIQPGGSLRLSCAASGFSLSSSAVSWVRQAPGKGLEWIGAIGSGGTSYYSNWAKSRFTISRDNSKNTLYLQMNSLRAEDTAVYYCARDPNSSDYPYGAYGMGLWGRGTLVTVSS
VL: DIQMTQSPSSLSASVGDRVTITCQVSQSISSYLSWYQQKPGKPPKLLIYYASTLASGVPSRFSGSGSGTDFTLTISSLQPEDFATYYCQQGYITSNVGNAFGGGTKVEIK
notes: Humanized; also called AL2/AL9
B3: TN36-9 (antibody, human IgG1, V domains shown)
VH: B2 VH with Y94F
VL: B2 VL with M4L, S10F, P43A, D70E
notes: Humanized; also called AL3/AL11
B4: TN36-21 (antibody, human IgG1, V domains shown)
VH: B2 VH with I12V, R116P
VL: B2 VL with M4L, S10F, P43A, D70E
notes: Humanized; also called AL6/AL11
B5: TN36-4 (antibody, human IgG1, V domains shown)
VH: B2 VH
VL: B2 VL with S10F, P43A
notes: Humanized; also called AL2/AL10
B6: TN36-7 (antibody, human IgG1, V domains shown)
VH: B2 VH with Y94F
VL: B2 VL
notes: Humanized; also called AL3/AL9
B7: TN36-8 (antibody, human IgG1, V domains shown)
VH: B2 VH with Y94F
VL: B2 VL with S10F, P43A
notes: Humanized; also called AL3/AL10
B8: TN36-6 (antibody, human IgG1, V domains shown)
VH: B2 VH with Y94F
VL: B2 VL with P43A
notes: Humanized; also called AL3/AL8
B9: TN36-5 (antibody, human IgG1, V domains shown)
VH: B2 VH
VL: B2 VL with M4L, S10F, P43A, D70E
notes: Humanized; also called AL2/AL11

Tests used:
[1] = molecular target: T1, His tagged human TNFR2 ECD (Acro …); test: monoclonal phage ELISA, hTNFR2-His coated, anti-M13-HRP
Experimental: A 96-well ELISA plate was coated with hTNFR2-His and blocked with PBS buffer containing 2% BSA at […], of pre-blocked phage solution was added to the plate and incubated at 37° C. for 30 min. After the plate was washed twice with PBS buffer containing 0.05% Tween 20, phage binding was detected by HRP-conjugated anti-M13 antibody (GE Healthcare). Top binders were picked and the corresponding phagemids in TG1 cell were isolated and subjected to DNA sequencing to obtain VH/VL sequence. The sequences of TN1-36_VH and TN1-36_VL are set forth as SEQ ID NO: 1 and SEQ ID NO: 2, respectively. Antibody numbering and CDR annotation are performed according to IMGT scheme respectively.

[2] = molecular target: T1, His tagged human TNFR2 ECD (Acro …); test: ELISA, receptor coated at 1 µg/mL, antibody titrated from 5 µg/mL
Experimental: (§1) Human TNFR2 (Acro Biosystem, TN2-H5227), Human TNFR1 (Acro Biosystem, TN1-H5222), Cynomolgus TNFR2 (Sino Biological, 90102-CO8H) or mouse TNFR2 (R&D systems, 426-R2-050/CF) was coated on high binding polystyrene flat bottom micro-titer plates (Thermo Scientific, 3455) in PBS (PH=7.4, Gibco,10010-031) at 1 μg/mL and 100 μL per well. Plates were incubated at 4° C. overnight.
(§2) Plates were warmed up to room temperature the next day and washed with 200 μL PBS containing 0.1% Tween 20 (Life technologies, 003005) per well for 3 times. Plates were blocked with 200 μL PBS buffer containing 1% BSA (Fisher Scientific, BP1600-100) per well for 1 hour at 37° C. Antibodies was titrated from 5 μg/mL in a 5-fold dilution series, distributed 100 μL per well and incubated at 37° C. for 1 hour. Human IgG1 isotype control (BioxCell, BE0297) was used as negative control. Plates were washed with 200 μL PBS containing 0.1% Tween 20 (Life technologies, 003005) per well for 3 times. Goat anti-Human IgG Fc Secondary Antibody-HRP conjugate (Invitrogen, A18817) were distributed at 0.5μg/mL and 100 μL per well to detect bound antibodies. After 1-hour incubation of secondary antibody at 37° C., plates were washed with 200 μL PBS containing 0.1% Tween 20 (Life technologies, 003005) per well for 3 times. Plates were developed using TMB Substrate Solution (eBioscience, 00-4201-56) and stopped with ELISA stop solution (Invitrogen, SSO4). The level of bound antibodies was determined by reading absorbance at 450 nm. Mouse anti-human TNFR1 antibody (ThermoFisher Scientific, MA1-81005) and goat anti mouse IgG secondary antibody-HRP conjugate (Invitrogen, 62-5520) were used as positive control for human TNFR1 detection. Armenian Hamster anti-mouse TNFR2 antibody (InVivoMab, BE0247) and HRP-Goat anti-Armenian Hamster IgG (H+L) Secondary Antibody (Invitrogen, PA1-32045) were used as positive control for mouse TNFR2 detection.

[3] = molecular target: T2, rat TNFR2 (R&D systems, 8348-R2-050); test: ELISA, receptor coated at 1 µg/ml
Experimental: Plates were incubated at 4° C. overnight. Antibodies was titrated from 100 μg/ml in a 5-fold dilution series, and distributed 100 μL, per well and incubated at 37° C. for 1 hour. Human IgG1 isotype control (BioxCell, BE0297) was used as negative control. TNFR2 Polyclonal Antibody (Invitrogen, PAS-80159) and HRP conjugated Goat anti-Rabbit IgG Fc Secondary Antibody (Invitrogen, A16116) were used as positive control for rat TNFR2 detection.

[4] = molecular target: T3, Full length human TNFR2 on Jurkat E6-1 …; test: FACS on human TNFR2+ Jurkat Clone No.3, biotinylated antibody with streptavidin-PE
Experimental: FACS analysis was used to evaluate the binding of purified anti-TNFR2 antibody candidates produced from example 6 to cell surface TNFR2 target. Anti-human TNFR2 antibodies and negative control IgG were biotinylated using a EZ-Link™ Micro Sulfo-NHS-Biotinylation Kit (Thermo Fisher Scientific, 21925) according to manufacturer's instructions. Biotinylated antibodies (100 μg/mL) were then incubated with Halt™ Protease Inhibitor Cocktail (100X, Thermo Scientific, 1862209) and 80 μg/mL Streptavidin-R-Phycoerythrin (PE) conjugate (Invitrogen, S21388). Antibodies were stored at 4° C. until use. 5×10⁵ Clone No.3 of human TNFR2⁺ Jurkat cells were distributed each well and blocked with human TruStain FcX™ (Biolegend, 422302) for 10 minutes at room temperature before stained with a serially diluted PE conjugated anti-human TNFR2 antibodies or hIgG1 starting from 50 μg/mL in a 5-fold dilution fashion for 30 minutes at 4° C. PE-anti hTNFR2 (Clone MR2-1, Thermo fisher #TNFR7504) was used as positive control. The geometric mean fluorescent intensity was measured on Sony SA3800 cell analyzer. Data were analyzed using Flowjo Software (Tree star Inc).

[5] = molecular target: T4, Human TNFR1 (Acro Biosystem, TN1-H5222); test: ELISA, receptor coated at 1 µg/mL
Experimental: as §1, §2

[6] = molecular target: T5, mouse TNFR2 (R&D systems, 426-R2-050/CF); test: ELISA, receptor coated at 1 µg/mL
Experimental: as §1, §2

Row | Binder | binding result [1] | binding result [2] | binding result [3] | binding result [4] | binding result [5] | binding result [6]
1 | B1 | binds |  |  |  |  | 
2 | B2 |  | binds | no binding (tested: titrated from 100 µg/ml) | binds | no binding (tested: titrated from 5 µg/mL) | no binding (tested: titrated from 5 µg/mL)
3 | B3 |  | binds | no binding (tested: titrated from 100 µg/ml) | binds | no binding (tested: titrated from 5 µg/mL) | no binding (tested: titrated from 5 µg/mL)
4 | B4 |  |  | no binding (tested: titrated from 100 µg/ml) |  | no binding (tested: titrated from 5 µg/mL) | no binding (tested: titrated from 5 µg/mL)
5 | B5 |  | binds | no binding (tested: titrated from 100 µg/ml) | binds | no binding (tested: titrated from 5 µg/mL) | no binding (tested: titrated from 5 µg/mL)
6 | B6 |  | binds | no binding (tested: titrated from 100 µg/ml) | binds | no binding (tested: titrated from 5 µg/mL) | no binding (tested: titrated from 5 µg/mL)
7 | B7 |  | binds | no binding (tested: titrated from 100 µg/ml) | binds | no binding (tested: titrated from 5 µg/mL) | no binding (tested: titrated from 5 µg/mL)
8 | B8 |  | binds | no binding (tested: titrated from 100 µg/ml) | binds | no binding (tested: titrated from 5 µg/mL) | no binding (tested: titrated from 5 µg/mL)
9 | B9 |  | binds | no binding (tested: titrated from 100 µg/ml) | binds | no binding (tested: titrated from 5 µg/mL) | no binding (tested: titrated from 5 µg/mL)
